Data from the MegaScale stability set (Tsuboyama et al. 2023).

B1: EEHEE_rd4_0763 (parent)
chain: LTVHVGNVTYHFDNPEQAEEWAKRMAKKYQGQIHVKDGQFRIE
B2: 2K2A (parent)
chain: ELREAFRLYDKEGNGYISTDVMREILAELDETLSSEDLDAMIDEIDADGSGTVDFEEFMGVMT

Variants of: B1
Test: folding stability dG (cDNA display proteolysis); higher = more stable
Settings: PBS, room temperature

First: D37T
Second: D37I
The “folding stability dG” value of the first is lower: 2.58 kJ/mol for the first, 3.78 kJ/mol for the second.

First: D37N
Second: W21F
The “folding stability dG” value of the first is lower: 5.96 kJ/mol for the first, 9.52 kJ/mol for the second.

First: W21H
Second: A18K
The “folding stability dG” value of the first is lower: 2.91 kJ/mol for the first, 2.93 kJ/mol for the second.

First: A18D
Second: A18L
The “folding stability dG” value of the first is lower: 0.552 kJ/mol for the first, 5.3 kJ/mol for the second.

First: V35A
Second: G31D
The “folding stability dG” value of the first is higher: 4.02 kJ/mol for the first, 3.78 kJ/mol for the second.

Going from G31R to G31Y, the “folding stability dG” value rises from 4.49 kJ/mol to 5.74 kJ/mol.

Going from G31P to L1R, the “folding stability dG” value rises from 2.39 kJ/mol to 7.12 kJ/mol.

First: L1T
Second: K23P
The “folding stability dG” value of the first is higher: 8.56 kJ/mol for the first, -1.72 kJ/mol for the second.

Compared with T9Y, H34K is higher in “folding stability dG” value: 6.08 kJ/mol for the first, 6.72 kJ/mol for the second.

Compared with Q32R, Q32I is higher in “folding stability dG” value: 6.87 kJ/mol for the first, 8.51 kJ/mol for the second.

First: Q32T
Second: A26I
The “folding stability dG” value of the first is higher: 8.33 kJ/mol for the first, 4.43 kJ/mol for the second.

Going from A26S to R41D, the “folding stability dG” value rises from 4.79 kJ/mol to 5.61 kJ/mol.

Going from R41E to R41K, the “folding stability dG” value falls from 6.66 kJ/mol to 5.77 kJ/mol.

Compared with E43C, E43L is lower in “folding stability dG” value: 12.7 kJ/mol for the first, 7.38 kJ/mol for the second.

Compared with E43M, E43V is higher in “folding stability dG” value: 6.28 kJ/mol for the first, 8.31 kJ/mol for the second.

Going from E43F to E43K, the “folding stability dG” value falls from 7.05 kJ/mol to 5.16 kJ/mol.

First: H11M
Second: H11P
The “folding stability dG” value of the first is higher: 6.25 kJ/mol for the first, 2.31 kJ/mol for the second.

First: E19S
Second: E19F
The “folding stability dG” value of the first is lower: 5.82 kJ/mol for the first, 9.61 kJ/mol for the second.

First: E19Q
Second: E19G
The “folding stability dG” value of the first is higher: 6.61 kJ/mol for the first, 5.06 kJ/mol for the second.

First: V3Q
Second: V3D
The “folding stability dG” value of the first is higher: 1.44 kJ/mol for the first, 0.791 kJ/mol for the second.

Compared with G6M, G6H is higher in “folding stability dG” value: 6.31 kJ/mol for the first, 7.06 kJ/mol for the second.

Going from F12W to N7V, the “folding stability dG” value rises from 2.67 kJ/mol to 5.85 kJ/mol.

Compared with F40A, F40R is lower in “folding stability dG” value: 4.43 kJ/mol for the first, 4.19 kJ/mol for the second.

Compared with F40G, F40W is higher in “folding stability dG” value: 4.12 kJ/mol for the first, 7.85 kJ/mol for the second.

First: F40N
Second: P15D
The “folding stability dG” value of the first is lower: 4.78 kJ/mol for the first, 4.89 kJ/mol for the second.

Going from P15Q to P15L, the “folding stability dG” value rises from 6.69 kJ/mol to 7.77 kJ/mol.

Going from P15N to P15Y, the “folding stability dG” value rises from 5.77 kJ/mol to 9.08 kJ/mol.

First: P15A
Second: K28D
The “folding stability dG” value of the first is higher: 7.12 kJ/mol for the first, 3.99 kJ/mol for the second.

Compared with Q17H, Q17P is lower in “folding stability dG” value: 6.44 kJ/mol for the first, 2.06 kJ/mol for the second.

Going from Q17S to R24I, the “folding stability dG” value rises from 6.87 kJ/mol to 7.31 kJ/mol.

Compared with R24H, R24A is higher in “folding stability dG” value: 6.02 kJ/mol for the first, 7.02 kJ/mol for the second.

Going from R24P to R24Q, the “folding stability dG” value rises from -2.82 kJ/mol to 6.45 kJ/mol.

Compared with E16F, E16Y is higher in “folding stability dG” value: 6.81 kJ/mol for the first, 6.95 kJ/mol for the second.

First: E16S
Second: Q39E
The “folding stability dG” value of the first is lower: 6.75 kJ/mol for the first, 7.86 kJ/mol for the second.

Going from Q39P to Q39N, the “folding stability dG” value rises from 3.7 kJ/mol to 6.95 kJ/mol.

Going from Y10H to Y10A, the “folding stability dG” value falls from 4.04 kJ/mol to 2.15 kJ/mol.

Compared with V5G, V5F is higher in “folding stability dG” value: 1.74 kJ/mol for the first, 7.28 kJ/mol for the second.

Going from Q30D to G38Y, the “folding stability dG” value falls from 6.34 kJ/mol to 3.8 kJ/mol.

Going from G38Q to G38L, the “folding stability dG” value rises from 3.77 kJ/mol to 4.94 kJ/mol.

Going from G38A to G38V, the “folding stability dG” value rises from 3.16 kJ/mol to 3.38 kJ/mol.

Going from G38I to G38W, the “folding stability dG” value rises from 3.64 kJ/mol to 3.65 kJ/mol.

First: N14F
Second: T2R
The “folding stability dG” value of the first is lower: 6.15 kJ/mol for the first, 6.19 kJ/mol for the second.

Going from T2L to I33L, the “folding stability dG” value rises from 6.87 kJ/mol to 6.9 kJ/mol.

Going from D13P to D13H, the “folding stability dG” value falls from 6.08 kJ/mol to 5.74 kJ/mol.

Compared with D13L, D13N is higher in “folding stability dG” value: 6.33 kJ/mol for the first, 7.19 kJ/mol for the second.

Going from D13S to D13Y, the “folding stability dG” value falls from 7.11 kJ/mol to 5.63 kJ/mol.

First: Y29S
Second: Y29H
The “folding stability dG” value of the first is lower: 3.3 kJ/mol for the first, 5.51 kJ/mol for the second.

Compared with Y29D, H4Y is higher in “folding stability dG” value: 2.08 kJ/mol for the first, 6.67 kJ/mol for the second.

Compared with M25P, M25C is higher in “folding stability dG” value: -2.13 kJ/mol for the first, 8.5 kJ/mol for the second.

First: M25T
Second: E20Y
The “folding stability dG” value of the first is lower: 3.06 kJ/mol for the first, 7.05 kJ/mol for the second.

Going from E20D to E20V, the “folding stability dG” value falls from 6.46 kJ/mol to 5.67 kJ/mol.

First: A22Y
Second: A22T
The “folding stability dG” value of the first is higher: 4.42 kJ/mol for the first, 3.12 kJ/mol for the second.

First: A22G
Second: A22H
The “folding stability dG” value of the first is lower: 2.76 kJ/mol for the first, 2.78 kJ/mol for the second.

Going from A22D to K36N, the “folding stability dG” value rises from -0.665 kJ/mol to 6.23 kJ/mol.

Going from K36Y to K36W, the “folding stability dG” value falls from 7.1 kJ/mol to 6.9 kJ/mol.

Compared with V8R, V8C is higher in “folding stability dG” value: 8.18 kJ/mol for the first, 12.7 kJ/mol for the second.

Variants of: B2
Test: as above
Settings: PBS, room temperature

First: E1Q
Second: E1Y
The “folding stability dG” value of the first is lower: 8.72 kJ/mol for the first, 10.1 kJ/mol for the second.

Going from E1G to E1L, the “folding stability dG” value rises from 8.49 kJ/mol to 9.15 kJ/mol.

Going from E1W to E1K, the “folding stability dG” value falls from 11.1 kJ/mol to 9.49 kJ/mol.

Going from E1H to E1P, the “folding stability dG” value falls from 8.79 kJ/mol to 7.7 kJ/mol.

First: E1F
Second: E1D
The “folding stability dG” value of the first is lower: 9.87 kJ/mol for the first, 10.1 kJ/mol for the second.

First: E1I
Second: E1R
The “folding stability dG” value of the first is lower: 8.43 kJ/mol for the first, 9.43 kJ/mol for the second.

Going from E1N to E1M, the “folding stability dG” value falls from 9.43 kJ/mol to 8.47 kJ/mol.

Going from E1S to E1A, the “folding stability dG” value rises from 9.55 kJ/mol to 9.59 kJ/mol.

Going from E1V to E1T, the “folding stability dG” value rises from 8.27 kJ/mol to 9.25 kJ/mol.

Compared with L2H, L2C is higher in “folding stability dG” value: 4.83 kJ/mol for the first, 11.4 kJ/mol for the second.

Going from L2K to L2Y, the “folding stability dG” value rises from 1.6 kJ/mol to 8.19 kJ/mol.

First: L2M
Second: L2F
The “folding stability dG” value of the first is lower: 7.26 kJ/mol for the first, 7.86 kJ/mol for the second.

First: L2E
Second: L2R
The “folding stability dG” value of the first is higher: 2.84 kJ/mol for the first, 1.42 kJ/mol for the second.

Going from L2S to L2W, the “folding stability dG” value rises from 2.21 kJ/mol to 11.1 kJ/mol.

Going from L2V to L2I, the “folding stability dG” value rises from 4.77 kJ/mol to 6.34 kJ/mol.

First: L2G
Second: L2P
The “folding stability dG” value of the first is lower: 2.72 kJ/mol for the first, 3.04 kJ/mol for the second.

Going from L2T to L2D, the “folding stability dG” value rises from 2.49 kJ/mol to 3.64 kJ/mol.

Compared with L2Q, L2N is lower in “folding stability dG” value: 2.95 kJ/mol for the first, 2.88 kJ/mol for the second.

First: L2A
Second: R3A
The “folding stability dG” value of the first is lower: 5.16 kJ/mol for the first, 8.31 kJ/mol for the second.

Going from R3Q to R3I, the “folding stability dG” value rises from 7.15 kJ/mol to 8.31 kJ/mol.

Going from R3F to R3P, the “folding stability dG” value falls from 8.82 kJ/mol to 2.64 kJ/mol.

Compared with R3K, R3L is higher in “folding stability dG” value: 7.77 kJ/mol for the first, 9.19 kJ/mol for the second.

Compared with R3V, R3Y is higher in “folding stability dG” value: 7.39 kJ/mol for the first, 10.4 kJ/mol for the second.

First: R3D
Second: R3S
The “folding stability dG” value of the first is higher: 6.78 kJ/mol for the first, 5.92 kJ/mol for the second.

First: R3T
Second: R3G
The “folding stability dG” value of the first is lower: 6.04 kJ/mol for the first, 6.19 kJ/mol for the second.

Compared with R3N, R3H is higher in “folding stability dG” value: 5.6 kJ/mol for the first, 7.15 kJ/mol for the second.

Compared with R3E, R3W is higher in “folding stability dG” value: 9.05 kJ/mol for the first, 9.56 kJ/mol for the second.

With R3M the “folding stability dG” value was 8.06 kJ/mol.
